Source: the nanobody polyreactivity screen of Harvey et al. (2022)

Assay: yeast display, Sf9 membrane polyspecificity reagent, FACS + sequencing; frameworks hold sequencing errors
Procedure, shortened: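 Polyreactivity labels are assigned by the sorting gate from which each nanobody was recovered. The gates were low and high (top ~1%), set on anti-HA fluorescence for expression and streptavidin fluorescence for reagent binding. Before sorting, galactose-induced (36–48 hours) yeast display cells were stained for 1 hour at 4 °C with 10% biotinylated, detergent-solubilized Sf9 membrane reagent.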
With “QVQLVESGGGLVQAGGSLRLSCAASGIILAYYAMRWYRQAPGKERELVASINRSGGSTYYADSVKGRFTISRDNAKNTVYFQMNSMKPEDTAVYYCDATTRGVGQWWYRYYYWGQGTQVTVSS” the “polyreactivity (PSR sort gate)” value was “high polyreactivity”. In the case of “QVQLVESGGGLVQAGGSLRLSCAASGIILDPNAMGGYRQAPGKERELVAGITRSGVSTYYADSVKGRFTISRDNAKNTVYLQMKSLKPEDTAVYYCAKDRIYGSKGEDDDYWGQGTQVTVSS”, the “polyreactivity (PSR sort gate)” value is reported as “low polyreactivity”. With “QVQLVESGGGLVQAGGSLRLSCAASGIILGSYVMGWYRQAPGKERELVAVISFSGGSTYSADSVKGRFTISRDNAKNTVYLQMNSLKPEDTAVYYCAADNFRSYTIRSPYNYWGQGTQVTVSS” the “polyreactivity (PSR sort gate)” value was “low polyreactivity”. With “QVQLVESGGGLVQAGGSLRLSCAASGIILGYYAMGWYRQAPGKERELVAAINWSGASTYYADSVKGRFTISRDNAKNTVYLQMNSLKPEDTAVYYCARRAYGTRVLFDYWGQGTQVTVSS” the “polyreactivity (PSR sort gate)” value was “high polyreactivity”. In the case of “QVQLVESGGGLVQAGGSLRLSCAASGIILHYYAMGSYRQAPGKERELVAAISARGGRTYYADSVKGRFTISRDNAKNTVYLQMNSLKPEDTAVYYCARYLRRSSPSPGYGYWGQGTQVTVSS”, the “polyreactivity (PSR sort gate)” value is reported as “high polyreactivity”. For “QVQLVESGGGLVQAGGSLRLSCAASGIILHYYTMGWYRQAPGKERELVAAITFSGGGTYYADSVKGRFTISRDNAKNTVYLQMNSLKPEDTAVYYCAAPWRYYGHDYWGQGTQVTVSS”, the “polyreactivity (PSR sort gate)” value was “low polyreactivity”. In the case of “QVQLVESGGGLVQAGGSLRLSCAASGIILPYYVMGSYRPAPGKERELVAAISSGGRTYYADSVKGRFTISRDNAKNTVYLQMNSLKPEDTAVYYCNAYFTGKWYDYWVQGTQVTVSS”, the “polyreactivity (PSR sort gate)” value is reported as “high polyreactivity”. For “QVQLVESGGGLVQAGGSLRLSCAASGIILRRYAMGWYRQAPGKERELVARISYRGGRTNYADSVKGRFTISRDNAKNTFYLEMNSLKPEDTAVYYCDAVDWYYHEGTAYNYWGQGTQVTVSS”, the “polyreactivity (PSR sort gate)” value was “high polyreactivity”. For “QVQLVESGGGLVQAGGSLRLSCAASGIILSENDMGWYRQAPGKERELVAAITSSGSTSYADSVKGRFTISRDNAKNTVYLQMNSLKPEDTAVYYCAADYLNPFPPYQYWKQSYDYWGQGTQVTVSS”, the “polyreactivity (PSR sort gate)” value was “low polyreactivity”. With “QVQLVESGGGLVQAGGSLRLSCAASGIILYTYAMGWYRQAPGKEREFVAGIRWSGSSTYYADSVKGRFTISRDNAKNTVYLQMNSLKPEDTAVYYCATGQPYGPLYSLGYGYWGQGTQVTVSS” the “polyreactivity (PSR sort gate)” value was “high polyreactivity”. For “QVQLVESGGGLVQAGGSLRLSCAASGIILYYNALGWYRQAPGKERELLAAITTSGVSTYDADSVKGRFTISRDNAKNTVYLQMKSLKPEDTAVYYCNARARARYFYEMDYWGQGTQVTVSS”, the “polyreactivity (PSR sort gate)” value was “low polyreactivity”. In the case of “QVQLVESGGGLVQAGGSLRLSCAASGIISGDYAMGWYRQAPGKERELVARITSGDSTNYADSVKGRFTISRDNAKNTVYLQMNSLKPEDTAVYYCAAKRYVFQNDYWGQGTQVTVSS”, the “polyreactivity (PSR sort gate)” value is reported as “low polyreactivity”. With “QVQLVESGGGLVQAGGSLRLSCAASGIISYKNVMGWYRQAPGKERELVAAISGRGGSTYYADSVKGRFTISRDNAKNTVYLQMNSLKPEDTAVYYCAKYPGISGYNYWGQGTQVTVSS” the “polyreactivity (PSR sort gate)” value was “high polyreactivity”. For “QVQLVESGGGLVQAGGSLRLSCAASGIISYLNAMGWYRQAPGKERELVAAITGGGRTNYADSVKGRFTFSRDNAKNTVYLQMNSLKPEDTAVYYCNAYSSNYRYWARRGRPYNYWGQGTQVTVSS”, the “polyreactivity (PSR sort gate)” value was “high polyreactivity”. For “QVQLVESGGGLVQAGGSLRLSCAASGIIVAWYAMGWYRQAPGKERELVARISSGASPNYADSVKGRFTISRDNAKNTVYLQMNSLKPEDTSVYYCAAVSHPFRRSRYDYWRQGTQVTVSS”, the “polyreactivity (PSR sort gate)” value was “high polyreactivity”. With “QVQLVESGGGLVQAGGSLRLSCAASGIIVSYYAMGWYRQAPGKERELVAAITSGGSTNYADSVKGRFTISRDNAKITVYLQMNSLKPEDTAVYYCAAERGDTAYRKYDYWGQGTQVTVSS” the “polyreactivity (PSR sort gate)” value was “low polyreactivity”.
